Tests used:
[1] = molecular target: T1, human carboxylesterase 1 (Homo sapiens, UniProt P23141); assay: inhibition of remdesivir hydrolysis in CES1-expressing cell S9 fraction, HPLC; format: biochemical
T1 sequence (P23141 18-567): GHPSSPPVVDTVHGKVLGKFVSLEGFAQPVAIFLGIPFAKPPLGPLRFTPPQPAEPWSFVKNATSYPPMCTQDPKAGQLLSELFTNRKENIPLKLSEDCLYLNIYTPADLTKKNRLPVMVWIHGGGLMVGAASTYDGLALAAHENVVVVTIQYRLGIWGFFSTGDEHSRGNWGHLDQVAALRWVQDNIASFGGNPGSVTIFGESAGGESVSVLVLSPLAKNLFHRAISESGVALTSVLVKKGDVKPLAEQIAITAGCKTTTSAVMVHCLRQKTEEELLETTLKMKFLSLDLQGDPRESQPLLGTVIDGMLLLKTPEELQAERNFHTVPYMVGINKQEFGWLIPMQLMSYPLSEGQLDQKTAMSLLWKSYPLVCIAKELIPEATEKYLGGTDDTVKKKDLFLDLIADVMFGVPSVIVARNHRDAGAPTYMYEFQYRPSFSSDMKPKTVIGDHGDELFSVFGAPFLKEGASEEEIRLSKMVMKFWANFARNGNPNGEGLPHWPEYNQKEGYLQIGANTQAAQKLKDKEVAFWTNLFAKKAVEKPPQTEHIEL

[2] = substrate: CCC(CC)COC(=O)[C@H](C)N[P@](=O)(OC[C@H]1O[C@@](C#N)(c2ccc3c(N)ncnn23)[C@H](O)[C@@H]1O)Oc1ccccc1; assay: Michaelis-Menten kinetics of hydrolysis to GS-704277 in S9 fraction, HPLC; format: biochemical, Homo sapiens

Molecule	Ki [1] [nM]	Km [2] [µM]
C=C(C)[C@@H]1CCC(C)=C[C@H]1c1c(O)cc(CCCCC)cc1O [cannabidiol]	890	
human carboxylesterase 1 (Homo sapiens) (protein) GHPSSPPVVDTVHGKVLGKFVSLEGFAQPVAIFLGIPFAKPPLGPLRFTPPQPAEPWSFVKNATSYPPMCTQDPKAGQLLSELFTNRKENIPLKLSEDCLYLNIYTPADLTKKNRLPVMVWIHGGGLMVGAASTYDGLALAAHENVVVVTIQYRLGIWGFFSTGDEHSRGNWGHLDQVAALRWVQDNIASFGGNPGSVTIFGESAGGESVSVLVLSPLAKNLFHRAISESGVALTSVLVKKGDVKPLAEQIAITAGCKTTTSAVMVHCLRQKTEEELLETTLKMKFLSLDLQGDPRESQPLLGTVIDGMLLLKTPEELQAERNFHTVPYMVGINKQEFGWLIPMQLMSYPLSEGQLDQKTAMSLLWKSYPLVCIAKELIPEATEKYLGGTDDTVKKKDLFLDLIADVMFGVPSVIVARNHRDAGAPTYMYEFQYRPSFSSDMKPKTVIGDHGDELFSVFGAPFLKEGASEEEIRLSKMVMKFWANFARNGNPNGEGLPHWPEYNQKEGYLQIGANTQAAQKLKDKEVAFWTNLFAKKAVEKPPQTEHIEL		14.19
human carboxylesterase 1 (Homo sapiens; G143E) (protein) GHPSSPPVVDTVHGKVLGKFVSLEGFAQPVAIFLGIPFAKPPLGPLRFTPPQPAEPWSFVKNATSYPPMCTQDPKAGQLLSELFTNRKENIPLKLSEDCLYLNIYTPADLTKKNRLPVMVWIHGGELMVGAASTYDGLALAAHENVVVVTIQYRLGIWGFFSTGDEHSRGNWGHLDQVAALRWVQDNIASFGGNPGSVTIFGESAGGESVSVLVLSPLAKNLFHRAISESGVALTSVLVKKGDVKPLAEQIAITAGCKTTTSAVMVHCLRQKTEEELLETTLKMKFLSLDLQGDPRESQPLLGTVIDGMLLLKTPEELQAERNFHTVPYMVGINKQEFGWLIPMQLMSYPLSEGQLDQKTAMSLLWKSYPLVCIAKELIPEATEKYLGGTDDTVKKKDLFLDLIADVMFGVPSVIVARNHRDAGAPTYMYEFQYRPSFSSDMKPKTVIGDHGDELFSVFGAPFLKEGASEEEIRLSKMVMKFWANFARNGNPNGEGLPHWPEYNQKEGYLQIGANTQAAQKLKDKEVAFWTNLFAKKAVEKPPQTEHIEL		93.94

Reference: PMC9367181 (Chemico-Biological Interactions, 2022)
